This is an account of results in the supplement of paper PMC9170038.

The subject of data set [1] is MS2 coat protein. In words: apparent KD of MS2 coat protein, switch OFF state (with FMN for OFF switches, without FMN for ON switches); designed switch direction (-1 OFF switch, 1 ON switch): -1; higher = weaker reporter binding. The following applies: FMN input: 0 or 200 uM; Eterna round: R93 (includes R88 designs). In outline: (§1)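 Values are apparent KD, taken as the median for each design of fits to normalised binding curves from individual clusters. The designed RNA switches were transcribed on-chip from Illumina sequencing clusters and exposed to SNAP-549-labelled MS2 coat protein at twofold increasing amounts from 0.7 or 1.5 nM to 3 µM. Titration used 100 mM Tris-HCl pH 7.5, 80 mM KCl and 4 mM MgCl2, without or with constant ligand.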

For data set [2], the system named is MS2 coat protein. Nature of the data set: apparent KD of MS2 coat protein, switch ON state; designed switch direction (-1 OFF switch, 1 ON switch): -1; higher = weaker reporter binding. Conditions: FMN input: 0 or 200 uM; Eterna round: R93 (includes R88 designs). Summed up: as §1

In the case of “AAAAAACAAGGAUAUACAAAAAUAAAAAGAAUAAAGUGAAAACAUGAGGAUCACCCAUGUAGAAGGUGUAAAAA [Default title]”, the “apparent KD of MS2 coat protein” value in the data set with MS2 coat protein [1] is 44.8 nM; with MS2 coat protein [2] it was 67 nM.
In the case of “ACGAAACAUGAGGAUCACCCAUGUCAGGAUAUGAACGAAAAUAAAUAAAAAUAAAAGUUCAGAAGGGACGACGA [66%, Wbt, 24]”, the figures for the “apparent KD of MS2 coat protein” value with MS2 coat protein [1] and in the data set with MS2 coat protein [2] were 53 nM and 39.5 nM, respectively.
Consider “AACUGACAUGAGGAUCACCCAUGUCAGGAUAUGCUUCAUAAAAUAAAAAUAAAAUGAUGCAGAAGGGACAUGAA [Design 27 :P Sub-opt 3]”, for which the “apparent KD of MS2 coat protein” value in the data set with MS2 coat protein [1] was found to be 13.5 nM; with MS2 coat protein [2], 15.4 nM.
For the sequence “AAAAAGGCAGGAUAUACAUGAGGAUCACCCAUGUAGUUGACAAAAAAGAGUCAACAGUGUAGAAGGGCCAAAAA [Exclusion3-cac1]”, the results for the “apparent KD of MS2 coat protein” value in the data set on MS2 coat protein [1] and with MS2 coat protein [2] were 22.1 nM and 18.1 nM, respectively.
Consider “AAUAUGUAAGGAUAUGCUGCUCGUCACAAAAGUGAUGAGUAGCAGAAGGUACAUGAGGAUCACCCAUGUAAAGA [JL eternac mod 13]”, for which the entries for the “apparent KD of MS2 coat protein” value in the data set with MS2 coat protein [1] and in the data set with MS2 coat protein [2] were 52 nM and 30.9 nM, respectively.
“AAAAAACAUGAGGAUCACCCAUGUGAGGAUAUGUACGAAAAUAAAUAAAAAUAAAAGUACAGAAGGCACAAAAA [66%, Wbt, 2]”: the “apparent KD of MS2 coat protein” value in the data set on MS2 coat protein [1] came to 41.2 nM; in the data set with MS2 coat protein [2], 35.7 nM.
The matching figures for “AGGAAACAUGAGGAUCACCCAUGUAAGGAUAUGAGAAAGAAAAGAAAAGAAAGAAGAAUCAGAAGGUACAAGAA [Semerkhet]”: 89.2 nM and 34.4 nM.
“AUAAACUGAGGAUAUACAUGAGGAUCACCCAUGUAAAAAAAAAAAAGUUCCUCAAAAAGUAGAAGGCAGAAUAA [JR_Exc003_Sub013]”: the “apparent KD of MS2 coat protein” value in the data set with MS2 coat protein [1] amounted to 19.4 nM; in the data set on MS2 coat protein [2] it was 13.2 nM.
With “AAGAAGUCAGGAUAUGCCAGAGAUCAAGAAAGUGACGAGUAGCAGAAGGGACAUGAGGAUCACCCAUGUAAAGA [Opal 8]”, the “apparent KD of MS2 coat protein” value with MS2 coat protein [1] amounted to 36.9 nM; in the data set on MS2 coat protein [2], 45.9 nM.
Consider “AACAGUACAGGAUAUACAUGAGGAUCACCCAUGUGAAAUAAAAGUGGCGUACCACAAAGUAGAAGGGUACUGGA [Mat - Exclusion 3 - JL mod - D22]”, for which the “apparent KD of MS2 coat protein” value was found to be 119 nM in the data set on MS2 coat protein [1] and 27.3 nM with MS2 coat protein [2].
“AAGGGACAUGAGGAUCACCCAUGUGAGGAUAUGACGUAAAGAAAGAAAGAAGAAAUCGUCAGAAGGCACACCAA [Mat - Exclusion 1 - Eli mod - D70]”: the entries for the “apparent KD of MS2 coat protein” value with MS2 coat protein [1] and with MS2 coat protein [2] were 118 nM and 70.6 nM, respectively.
As for “AGUCAUACAGGAUAUACAUGAGGAUCACCCAUGUUUAUCCUAAAAAGGUGAUCCUCAUGUAGAAGGGUAUGACA [EX3 210: Super Stable 10]”, the “apparent KD of MS2 coat protein” value is 16.6 nM in the data set on MS2 coat protein [1] and 12.4 nM with MS2 coat protein [2].
The matching figures for “AAAAAACAUGAGGAUCACCCAUGUAAGGAUAUGCUCGUGCGAAAGCACAAAAAAAAGAGCAGAAGGUACAAAAA [66%, Wbt, 38]”: 32.3 nM and 19.8 nM.
The corresponding values for “AAAACGGUAGGAUAUACAAUUGGGAACUAGACCGAAAAACCACAUGAGGAUCACCCAUGUAGAAGGGCCAAAAA [Ex2 Malc#12]” are 77.6 nM and 39.2 nM.
As to “AAGAAACAUGAGGAUCACCCAUGUGAGGAUAUCUAAAAGAAAAGAAAAGAAAGAAGAAAGAGAAGGCACAAAGG [Setut]”, the “apparent KD of MS2 coat protein” value with MS2 coat protein [1] came out at 64.1 nM; with MS2 coat protein [2], 34.7 nM.
As to “AACAGUACAGGAUAUACAUGAGGAUCACCCAUGUGAAAAUUAAGUGGAAAACCACAAUGUAGAAGGGUACUGGA [Mat - Exclusion 3 - Eli mod - D49]”, the “apparent KD of MS2 coat protein” value amounted to 219 nM in the data set on MS2 coat protein [1] and 46.1 nM in the data set with MS2 coat protein [2].
On to “AACUGACAUGAGGAUCACCCAUGUCAGGAUAUGCAUCUUAGGAAAAAAAAACUAAGAUGCAGAAGGGACAUGGA [Design 4: Super Stable 4]”, for which the “apparent KD of MS2 coat protein” value in the data set with MS2 coat protein [1] was 46.2 nM; in the data set on MS2 coat protein [2], 23.9 nM.
As to “CAGUACUGAGGAUAUACAUGAGGAUCACCCAUGUGGGAAAGCUACGAAAGUAGCAAAUGUAGAAGGCAGUACUG [Ex3: 805]”, the “apparent KD of MS2 coat protein” value stood at 98.7 nM in the data set on MS2 coat protein [1] and 153 nM with MS2 coat protein [2].
In the case of “AAAACAAAAGGAUAUAAAAACAAAAGUCAGGAUAUAGGAAACUAGAAGGGACAUGAGGAUCACCCAUGUAAAAC [Meechl Ex4 R2 m3]”, the “apparent KD of MS2 coat protein” value with MS2 coat protein [1] is 44.5 nM; with MS2 coat protein [2], 55.9 nM.
The matching figures for “AAAAAGUGAGGAUAUACGCUGAAGAGAAGACACAACCAGGCGUAGAAGGCACAUGAGGAUCACCCAUGUACAAA [Ex4 Malc#8]”: 27.3 nM and 28.2 nM.
As to “AAACGUUGAGGAUAUACGAAAAAGGGUAGGUCAAAAAAAACACAUGAGGAUCACCCAUGUAGAAGGCAACGAAA [Similarities v.1 (13nt loop FMN+)]”, the “apparent KD of MS2 coat protein” value was 45.1 nM with MS2 coat protein [1] and 71.4 nM in the data set on MS2 coat protein [2].
Consider “AAAACGUGAGGAUAUGCACCAAAAAAGGUUUUUCGGGUACGACAUGAGGAUCACCCAUGUAGAAGGCACGAAAA [Frodo Flailing 14 - Jieux - Exclusion 2]”, for which the figures for the “apparent KD of MS2 coat protein” value in the data set on MS2 coat protein [1] and in the data set with MS2 coat protein [2] were 14.1 nM and 20.3 nM, respectively.
Take “AAAACGCUAGGAUAUACAAAAAAAAAGGGAAAAAAAAAGGGACAUGAGGAUCACCCAUGUAGAAGGAGCAAAAA [Diamond 87]”: the entries for the “apparent KD of MS2 coat protein” value with MS2 coat protein [1] and in the data set with MS2 coat protein [2] were 108 nM and 68.5 nM, respectively.
The matching figures for “AAAAAACAUGAGGAUCACCCAUGUGAGGAUAUCGGUAGUGAGGCUAUAGUGUCAGUAAUGAGAAGGCACAUAAA [Brourd 613 Mod 11 - Jieux - Exclusion 1]”: 29.7 nM and 24.6 nM.
For the sequence “AAAGGACGAGGAUAUACAUGAGGAUCACCCAUGUAAAAAGCGUAGCAAAAGAGCUUAUGUAGAAGGCGUCCAAA [Meechl Ex3 2 R2 v4]”, the “apparent KD of MS2 coat protein” value was 49.3 nM in the data set with MS2 coat protein [1] and 20 nM in the data set on MS2 coat protein [2].
Turning to “GUCGUGUGAGGAUAUGGAAAGUAGAAGUGGCGGUCGAAAACCUAGAAGGCACAUGAGGAUCACCCAUGUAAGAG [JR_Exc004_Sub1708]”, the figures for the “apparent KD of MS2 coat protein” value in the data set with MS2 coat protein [1] and in the data set on MS2 coat protein [2] were 54.3 nM and 57 nM, respectively.
“AAGAAGCGAGGAUAUACAAAAUAAAAGAAAAGAAAGAAAGAACAUGAGGAUCACCCAUGUAGAAGGCGUAAGAA [Sankhenre Sewadjtu]”: the “apparent KD of MS2 coat protein” value in the data set with MS2 coat protein [1] is 11.1 nM; in the data set with MS2 coat protein [2], 13.3 nM.
The corresponding values for “AACAUGUCAGGAUAUGUGGAAAGAAUAAAAGAAAUAAGAACACAGAAGGGACAUGAGGAUCACCCAUGUCAACA [May 31]” are 25.7 nM and 27.7 nM.
For the sequence “AACAGUACAGGAUAUACAUGAGGAUCACCCAUGUGAUAGGAAUAAAACAAAAAUAAAAGUAGAAGGGUACUGGA [Ruby 46]”, the entries for the “apparent KD of MS2 coat protein” value in the data set on MS2 coat protein [1] and in the data set with MS2 coat protein [2] were 145 nM and 34 nM, respectively.
On to “AAAAGGUGAGGAUAUAGGAAAAUAAAAGAAAAUAAAAGAAACUAGAAGGCACAUGAGGAUCACCCAUGUAAUAA [LROPPY Exclusion 4 - v03_deltaG=3.54 break up the As mixed]”, for which the “apparent KD of MS2 coat protein” value in the data set on MS2 coat protein [1] worked out at 23.6 nM; in the data set on MS2 coat protein [2] it was 28.7 nM.
